Measured values published in publication PMC11203631.

How the values were obtained:
[1] = target: vault-Z nanoparticle (assembly of major vault protein carrying a C-terminal Z peptide) (human | staphylococcal (protein A-derived)); assay: co-sedimentation; 8 nM vault-Z (624 nM MVP-Z) or authentic vault incubated 1 h with 40 to 320 nM Tz in 12 mM sodium phosphate pH 7.2, 0.14 M NaCl, 2.7 mM KCl; pelleted at 100,000 x g, 2 h, 4 °C; pellets quantified by SDS-PAGE densitometry and LC/MS; apparent KD from a quadratic binding equation
Trastuzumab [2] = assay: SPR; Biacore X100; Tz amine-coupled to a CM3 chip at 1220 RU; authentic vault, vault-Z or peptide Z injected 3 min at 30 uL/min, 25 °C, in 10 mM HEPES pH 7.4, 0.15 M NaCl, 3 mM EDTA, 0.05% Surfactant P20; Langmuir 1:1 kinetic fit
Trastuzumab [3] = assay: SPR; same sensorgrams of Z peptide on immobilised Tz, fitted with the affinity model (Req against Z peptide concentration)

Substance: Trastuzumab (antibody)
- Tz bound per vault-Z at 160 nM Tz (Tz per vault-Z) [1]: 14
- stoichiometry N (Tz per vault-Z) [1]: > 10

Substance: Z peptide in isolation
- Kd (Trastuzumab [2]): 38.3 nM
- koff (Trastuzumab [2]): 0.0171 s⁻¹
- kon (Trastuzumab [2]): 446000 M⁻¹ s⁻¹
- Kd (Trastuzumab [3]): 56 nM

Substance: vault-Z nanoparticle (assembly of major vault protein carrying a C-terminal Z peptide) (complex)
- Kd (Trastuzumab [2]): 2.53 nM
- koff (Trastuzumab [2]): 0.000259 s⁻¹
- kon (Trastuzumab [2]): 105000 M⁻¹ s⁻¹
